One series addresses T1, HMGB1 domain A wild type (UniProt P09429 9-79).
T1 sequence: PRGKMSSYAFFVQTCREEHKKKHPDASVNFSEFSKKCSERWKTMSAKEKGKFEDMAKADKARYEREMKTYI
The experiment in a line: EMSA. (Mobility shift assays separate free from complexed probe on a gel.)

A further series concerns the target T2, HMGB1 domain A C22S/C44S (UniProt P09429 9-79, C23S;C45S).
T2 sequence: T1 sequence with C15S, C37S
The experiment in a line: EMSA.

A further series addresses T3, HMGB1 domain A C22A (UniProt P09429 9-79, C23A).
T3 sequence: T1 sequence with C15A
The experiment in a line: EMSA.

Another series concerns the target T4, HMGB1 domain A C44A (UniProt P09429 9-79, C45A).
T4 sequence: T1 sequence with C37A
Nature of the series: EMSA.

In another series the target is T5, HMGB1 domain A C44S (UniProt P09429 9-79, C45S).
T5 sequence: T1 sequence with C37S
The experiment in a line: EMSA.

Another series deals with T6, HMGB1 domain A C22A/C44A (UniProt P09429 9-79, C23A;C45A).
T6 sequence: T1 sequence with C15A, C37A
Nature of the series: hydroxyl radical footprinting.

Residue numbers refer to the chain shown, from its start.

B1: 25-bp cisplatin-modified TGGA probe (dsDNA)
DNA 1: CCTCTCCTCTCTGGATCTTCTCTCC
DNA 2: GGAGAGAAGATCCAGAGAGGAGAGG
modifications: cisplatin 1,2-d(GpG) intrastrand cross-link at N7 of G13 and G14 of strand 1
In the case of B1, the Kd with HMGB1 domain A wild type amounted to 0.7 ± 0.1 nM; in the series with HMGB1 domain A C22S/C44S, 1.65 ± 0.37 nM; with HMGB1 domain A C22A, 1.12 ± 0.14 nM; with HMGB1 domain A C44A, 2.41 ± 0.31 nM; in the series with HMGB1 domain A C44S it was 1.6 ± 0.07 nM. For the same molecule, the binding result with HMGB1 domain A C22A/C44A was “binds”.

A word on the Kd: it is the concentration at which binding is half-saturated. High values mean lower affinity, low ones higher affinity.

Values taken from PMC3068233.
